Data published in the supplement of paper PMC7877785.
± gives the uncertainty stated by the source.

Assay: self-splicing fitness, log relative to wild type (ln ratio); higher = more splicing; Tetrahymena group I intron in knt gene, E. coli kanamycin selection, DiMSum; sequences stand for … in CUCUCU…GGAGGGAAAAGUUAUCAGGCAUGCACCUGGUAGCUAGUCUUUAAACCAAUAGAUUGCAUCGGUUUAAAAGGCAAGACCGUCAAAUUGCGGGAAAGGGGUCAACAGCCGUUCAGUACCAAGUCUCAGGGGAAACUUUGAGAUGGCCUUGCAAAGGGUAUGGUAAUAAGCUGACGGACAUGGUCCUAACCACGCAGCCAAGUCCUAAGUCAACAGAUCUUCUGUUGAUAUGGAUGCAGUUCACAGACUAAAUGUCGGUCGGGGAAGAUGUAUUCUUCUCAUAAGAUAUAGUCGGACCUCUCCUUAAUGGGAGCUAGCGGAUGAAGUGAUGCAACACUGGAGCCGCUGGGAACUAAUUUGUAUGCGAAAGUAUAUUGAUUAGUUUUGGAGUACUCGUGGUCG
In short: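 Library with all eight P1ex-region intron nucleotides randomised, intron inside the knt kanamycin-resistance gene on pET-22b(+), in E. coli BL21(DE3). Cells grew overnight at 37°C or 30°C on LB agar with or without 25 μg/mL kanamycin (plus 100 μg/mL carbenicillin, 50 μM IPTG, 0.2% rhamnose), in six replicate transformations. Pooled colonies were amplicon-sequenced on Illumina HiSeq 2500. DiMSum fitness is the error-weighted combination of wild-type-normalised replicate fold changes, kanamycin versus none.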

Sequence	self-splicing fitness (ln) (30 °C)	self-splicing fitness (ln) (37 °C)
AGUUAGCAAUAUUACGUUCG	-1.26 ± 0.082	-0.903 ± 0.1
AGUUAGCAAUAUUACGUUUC	-3.37 ± 0.34	
AGUUAGCAAUAUUACGUUUG	-3.13 ± 0.24	-1.8 ± 0.29
AGUUAGCAAUAUUACGUUUU	-3.11 ± 0.18	-1.41 ± 0.15
AUAAAGCAAUAUUACGACAA	-0.556 ± 0.086	0.621 ± 0.12
AUAAAGCAAUAUUACGACGU	0.742 ± 0.063	0.786 ± 0.074
AUAAAGCAAUAUUACGACUG	-1.14 ± 0.085	-0.454 ± 0.098
AUAAAGCAAUAUUACGAGCG	-0.041 ± 0.086	0.101 ± 0.09
AUAAAGCAAUAUUACGCAAU	-0.8 ± 0.074	-0.703 ± 0.11
AUAAAGCAAUAUUACGCAGG	-1.32 ± 0.098	-0.913 ± 0.14
AUAAAGCAAUAUUACGCCAA	-0.625 ± 0.15	-0.34 ± 0.17
AUAAAGCAAUAUUACGCCCC	-0.123 ± 0.16	0.0897 ± 0.24
AUAAAGCAAUAUUACGCCCG	-1.01 ± 0.14	-0.313 ± 0.16
AUAAAGCAAUAUUACGCGAU	-2.45 ± 0.15	-1.36 ± 0.16
AUAAAGCAAUAUUACGCGCU	-0.372 ± 0.1	-0.603 ± 0.12
AUAAAGCAAUAUUACGCUUC	-3.66 ± 0.37	-2.39 ± 0.32
AUAAAGCAAUAUUACGCUUU	-4.03 ± 0.24	-1.59 ± 0.23
AUAAAGCAAUAUUACGGAAG	-2.3 ± 0.098	-0.18 ± 0.11
AUAAAGCAAUAUUACGGAUC	-1.55 ± 0.13	-0.273 ± 0.15
AUAAAGCAAUAUUACGGUCU	-0.245 ± 0.061	0.47 ± 0.088
AUAAAGCAAUAUUACGGUUC	-2.17 ± 0.088	-0.743 ± 0.1

Sequence	self-splicing fitness (ln) (30 °C)	self-splicing fitness (ln) (37 °C)
AUAAAGCAAUAUUACGGUUU	-0.835 ± 0.072	-0.0425 ± 0.098
AUAAAGCAAUAUUACGUAAG	-2.08 ± 0.1	-0.84 ± 0.11
AUAAAGCAAUAUUACGUCCA	-0.469 ± 0.098	0.194 ± 0.16
AUAAAGCAAUAUUACGUCGC	-2.83 ± 0.25	-1.41 ± 0.19
AUAAAGCAAUAUUACGUGCA	-0.0876 ± 0.067	0.348 ± 0.093
AUAAAGCAAUAUUACGUGCC	-0.00478 ± 0.083	0.162 ± 0.12
AUACAGCAAUAUUACGACCA	-0.419 ± 0.15	-0.298 ± 0.17
AUACAGCAAUAUUACGACGU	-0.374 ± 0.068	0.174 ± 0.084
AUACAGCAAUAUUACGAGGG	-3.68 ± 0.2	-2.21 ± 0.19
AUACAGCAAUAUUACGAGGU	-3.04 ± 0.11	-1.84 ± 0.11
AUACAGCAAUAUUACGAGUA	-1.76 ± 0.16	-0.461 ± 0.1
AUACAGCAAUAUUACGAGUG	-2.32 ± 0.073	-1.34 ± 0.093
AUACAGCAAUAUUACGCAGG	-2.78 ± 0.14	-0.332 ± 0.11
AUACAGCAAUAUUACGCAGU	-2.88 ± 0.23	-2.74 ± 0.22
AUACAGCAAUAUUACGCCAG	-1.79 ± 0.14	-2.03 ± 0.2
AUACAGCAAUAUUACGCGGG	-3.46 ± 0.15	-1.75 ± 0.11
AUACAGCAAUAUUACGCGUC	-3.72 ± 0.14	-2.6 ± 0.13
AUACAGCAAUAUUACGGGAA	-2.72 ± 0.17	-1.51 ± 0.13
AUACAGCAAUAUUACGGGCU	-2.77 ± 0.11	-1.29 ± 0.12
AUACAGCAAUAUUACGUACA	-0.262 ± 0.081	-0.215 ± 0.11
AUACAGCAAUAUUACGUAUG	-2.42 ± 0.16	-2.52 ± 0.18
